The term Kd denotes the concentration at which binding is half-saturated. For orientation: stoichiometry N means the number of molecules, sites or subunits per partner or assembly.

Five molecules from paper PMC11579453 (Nature Communications, 2024) can be followed below.

The target of one data set is Aβ42 amyloid fibrils (UniProt P05067). The data set can be described thus: microfluidic diffusional sizing; Alexa647-labelled BRICHOS held constant (three concentrations a curve set), Aβ42 fibrils varied between 0.01 and 24 µM (monomer equivalents), incubated 48 h; global fit of Kd and stoichiometry.
The target of data set [1] is WT α-Synuclein amyloid fibrils (human) (UniProt P37840). Nature of the data set: microfluidic diffusional sizing; Alexa647-labelled BRICHOS held constant (three concentrations a curve set), α-Syn fibrils varied between 0.01 and 24 µM (monomer equivalents), equilibrium within 2 hours; global fit of Kd and stoichiometry.
The target is the same in data set [2]. Nature of the data set: NMR signal intensity ([15N,1H]-HMQC), competition; 100 µM 15N-labelled α-Syn monomer with 540 µM unlabelled α-Syn fibrils, 2 h at 4 °C, then unlabelled Var II added at 100, 300 or 500 µM, followed for ~120 min; 25 mM phosphate, 25 mM NaCl, pH ~6.8.
For data set [3] the target is unchanged. Nature of the data set: microfluidic diffusional sizing; Alexa647-labelled BRICHOS held constant (three concentrations a curve set), α-Syn fibrils varied between 0.01 and 24 µM (monomer equivalents), equilibrium within 2 hours; global fit of Kd and stoichiometry. The source holds these as a separate data set.
The target is the same in data set [4]. Nature of the data set: single-molecule TIRF microscopy (single particle tracking); α-Syn fibrils immobilised on a glass coverslip, blocked with BSA; Atto647-labelled Var II added at 1-100 nM in PBS.
Data set [5] deals with the molecule itself. Nature of the data set: multi-angle light scattering; proSP-C BRICHOS alone in solution; molecular mass read out; conditions not stated.
Data set [6] concerns the target T1, proSP-C BRICHOS (K114I, R139Q) (UniProt P11686 90-197, K114I | R139Q, Alexa647 label in the microfluidic diffusional sizing (site not stated); Atto647 succinimidyl ester (amine labelling) in the single-molecule microscopy; 15N labelled in the NMR binding experiments …).
T1 construct: BRICHOS domain of proSP-C, residues 90-197, with two salt-bridge mutations of the trimer interface; Monomer by light scattering, diffusional sizing and NMR structure; also called variant II; Var II; source: E. coli BL21(DE3*) pLysS, purified (Ni-NTA, TEV digestion, Ni chromatography, SEC); not shown: His tag, N-terminal, cleaved; NT* solubility tag, N-terminal, cleaved
T1 sequence (looked up): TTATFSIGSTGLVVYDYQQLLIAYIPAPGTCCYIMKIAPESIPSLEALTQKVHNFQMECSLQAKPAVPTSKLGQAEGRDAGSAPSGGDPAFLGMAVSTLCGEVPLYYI
Nature of the data set: NMR titration; 15N-labelled Var II, [15N,1H]-TROSY, peptide added at 100 µM to 2 mM; 25 mM phosphate, 25 mM NaCl, pH ~6.8, 2.5% DMSO, 303 K. The settings on record: both partners purified.

The mark [7] stands for this setting: scale: monomer units in the fibril per BRICHOS molecule.

Read-outs that look alike come from different tables or passages of the source.

In the case of “proSP-C BRICHOS (K114I, R139Q) (from UniProt P11686 90-197) (domain or fragment)”, the figures for the Kd (with Aβ42 amyloid fibrils; in data set [1]; in data set [3]) were 21.4 nM, 450000 nM and 450 nM, respectively. The stoichiometry N with Aβ42 amyloid fibrils (setting [7]) was determined as 6; in data set [3] (scale: monomer units in the fibrils per BRICHOS molecule), 7. Besides, the percent of fibril-bound monomeric α-Syn released (100 µM Var II) in data set [2] turned out to be 25%. Further, the percent of fibril-bound monomeric α-Syn released (300 µM Var II) in data set [2] was found to be 50%. Moreover, in data set [2], the percent of fibril-bound monomeric α-Syn released (500 µM Var II) was determined as 65%. The molecule further showed a residence time on the fibrils in data set [4] of 350 to 400 ms. Further, the residence time on the fibrils (three exemplary molecules) in data set [4] was found to be 100 s.

For “WT proSP-C BRICHOS domain (residues 90-197) (from UniProt P11686 90-197) (domain or fragment)”, the Kd with Aβ42 amyloid fibrils came out at 192 nM; in data set [3] it was 696 nM. Also, the stoichiometry N with Aβ42 amyloid fibrils (scale: Aβ42 monomer units on the fibril per BRICHOS molecule) came out at 8; in data set [3] (scale: monomer units of α-Syn per BRICHOS molecule), 38.

In the case of “proSP-C BRICHOS (E135R, R139E) (from UniProt P11686 90-197) (domain or fragment)”, the dissociation constant (Kd) in data set [1] was found to be 1.26 nM; in data set [3] it was 1260 nM. Further, the stoichiometry N in data set [3] (setting [7]) turned out to be 18.

B1: WT proSP-C BRICHOS domain (residues 90-197) (domain or fragment, UniProt P11686 90-197, looked up)
chain: TTATFSIGSTGLVVYDYQQLLIAYKPAPGTCCYIMKIAPESIPSLEALTRKVHNFQMECSLQAKPAVPTSKLGQAEGRDAGSAPSGGDPAFLGMAVSTLCGEVPLYYI
modifications: Alexa647 label in the microfluidic diffusional sizing (site not stated); 15N,13C labelled for NMR
notes: BRICHOS domain of the lung surfactant protein C precursor (proSP-C), residues 90-197; Homotrimer by light scattering, diffusional sizing and NMR structure; Disulfide bridges 120-148 and 121-189 were restrained in the structure calculation; BMRB entries 34811 and 34813 are printed without saying which is the trimer; also called WT BRICHOS; trimeric proSP-C BRICHOS; not shown: His tag, N-terminal, …
B1: the “stoichiometry N” value in data set [5] came out at 3.

B2: client peptide B (peptide)
peptide: VLEMGSGSGSKKVVVVVKK
notes: model client peptide, designed to be able to form a beta hairpin; said to represent part of the transmembrane helical segment of native proSP-C; Dissolved in DMSO at 20 mM stock; also called substrate peptide; source: synthetic peptide; bought: GL Biochem, Shanghai
For B2, the Kd in data set [6] was ~800000 nM.
